B1: Zinc finger MYM-type protein 3, residues 589 to 668; numbered along this chain, Q14202 (parent)
chain: LSCHYCHSLFSGKPEVLDWQDQVFQFCCRDCCEDFKRLRGVVSQCEHCRQEKLLHEKLRFSGVEKSFCSEGCVLLYKQDF

Variants of: B1
Assay: abundance fitness (aPCA) (normalised: wild type 0, dead -1); higher = more abundant; growth selection in yeast, the domain comes from the species named
Details: Homo sapiens

Abundance fitness of substitutions, site by site:
S43: M 0.105 | Q -0.339 | D -0.235 | G 0.59 | C -0.062 | V 0.286 | F -0.144 | A -0.076 | L -0.576 | P -0.496 | R -0.174 | W -0.889
C31: V -1.14 | W -1.26 | S -0.986 | T -1.02
R37: G -0.045 | S 0.123 | E -0.084 | D -0.238 | Q 0.254 | P -0.097 | W -0.065 | C -0.374 | V 0.097 | A 0.057 | L 0.095 | M -0.086 | K -0.343
E46: R -0.741 | A 0.932 | G 0.085 | W -0.245 | Q 0.281 | M -0.631 | S 0.385 | K 0.233 | L -0.116 | P 0.996 | D 0.228 | T 0.24 | C 0.271 | Y -0.354
H55: T 0.431 | R 0.057 | F 0.109 | G -0.126 | V -0.006 | I 0.199 | Q -0.516 | N 0.027 | D 0.35 | P 0.106 | W -0.334 | E -0.392 | C -0.053 | K -0.04 | Y 0.223 | A -0.286
V41: R 0.003 | T -0.243 | I 0.195 | A -0.208 | G 0.056 | K 0.398 | E 0.079 | N 0.317 | L -0.181
R39: G 0.424 | L -0.282 | C 0.272 | Q 0.288 | K -0.146 | M 0.032 | E -0.159 | A -0.417
E56: R -0.006 | Q -0.112 | T -0.091 | C -0.041 | S -0.299 | P -0.288 | M -0.22 | F 0.467 | H -0.161 | G -0.47 | V 0.548 | L 0.131 | Y -0.01
C48: R -0.553 | A -0.845 | S -0.561 | L -0.578 | V -0.741 | K 0.19 | T -1.05 | E -1.04 | W -0.329 | P 0.207
K52: S -0.371 | P -0.998 | M -0.118 | A -0.244 | V -0.478 | R -0.315 | C 0.546 | G -0.07 | W -0.699 | E -0.785
R49: S 0.283 | Y -0.618 | M -0.482 | D -0.485 | K -0.084 | L -0.131 | T -0.352 | V -0.785 | W -0.327 | A -0.507 | E -0.361 | F -0.38
L58: A 0.158 | C -0.179
H47: Q 0.151 | W 0.246 | C 0.345 | R -0.098 | V 0.075 | E -0.406 | L -0.388 | M -0.061 | K 0.075 | S -0.098 | P -0.742 | A -0.169
F35: C -0.467 | I -0.624 | D -0.549 | P -0.842 | E -0.157 | S -0.411 | Q -0.421 | H -0.219 | A -0.079 | W -0.118 | T -0.607 | M -0.071 | V -0.587 | L -0.641 | G -0.317 | R -0.726 | N -0.924 | Y -0.177 | K -0.529
L54: A -0.41 | I 0.201 | H -0.503 | G -0.536 | E -0.866 | T -0.226 | V -0.046 | D -0.589 | S -0.542 | R -0.664
L38: I 0.063 | C 0.11 | S 0.05 | Y -0.041 | E 0.302 | V 0.013 | T 0.264 | P 0.062 | W 0.243 | R 0.087
C45: P -1.1 | E -1.07 | R -0.742 | Q -1 | G -0.603 | S -0.942 | L -0.867 | A -0.666 | W -0.983 | T -0.641 | D -0.658 | Y -1.18 | F -0.356
Q50: R 0.01 | E -0.242 | K -0.071 | C -0.013 | L -0.542 | G -0.436 | Y -0.312 | T -0.293 | P -0.48 | A -0.641 | M 0.172 | S -0.356 | W -0.582
D34: A 0.064 | W -0.1 | M 0.17 | H -0.057 | E -0.01 | S -0.164 | Q -0.136 | Y 0.105 | R -0.093 | G 0.024 | T -0.178 | I -0.18 | K -0.008 | F -0.192 | V -0.079 | P -0.384
E51: R -0.198 | P 0.127 | L -0.119 | A -0.394 | H 0.675 | Q 0.003 | I -0.546 | W 0.537 | V -0.143 | G -0.393 | T -0.096 | C 0.227 | D 0.187
L53: M -0.234 | A -0.313 | Q -0.255 | G -0.445 | T -0.196 | S -0.154 | R -0.327 | P -0.091 | W -0.676 | E 0.064 | N -0.163 | V -0.056 | K 0.187
C32: G -0.253 | E -0.203 | N -0.239 | Q -0.08 | Y 0.067 | R -0.176 | T -0.108 | F -0.237 | S -0.227 | W -0.403 | D -0.521 | L -0.027 | V 0.038 | I -0.113 | A -0.026 | M 0.214 | P -0.574 | K 0.157
Q44: I 0.547 | T 0.959 | C 0.397 | K 1.04 | S 0.39 | G 0.185 | P 0.818 | F 1.01 | Y 1.13 | W 0.53 | M 0.576 | D 0.204 | R 0.889 | L 0.854 | E 0.49 | A 0.702 | V 0.767
K57: Q -0.131 | S -0.361 | A -0.487 | C -0.433 | D 0.159 | F -0.16 | R 0.092 | G -0.493 | T 0.05 | N -0.237 | W -0.756 | L -0.016 | P -0.804 | E -0.256 | V -0.192 | I 0.297
V42: Q -0.203 | W -0.01 | T 0.388 | M 0.422 | G -0.265 | P 0.176 | R -0.085 | E -0.041
K36: Y -0.561 | F -0.088 | C -0.294 | G -0.019 | A -0.077 | P -0.615 | Q 0.034 | S -0.048 | R -0.077 | T -0.011 | M 0.229 | H -0.089 | L -0.101 | W -0.181 | N -0.251 | I -0.313 | E -0.01
E33: L -0.171 | H 0.124 | P -0.811 | G -0.157 | C -0.151 | D 0.072 | T -0.093 | R -0.193 | Q -0.038 | Y -0.173 | W -0.254 | V -0.081 | A -0.037 | N -0.018 | F -0.103 | K -0.353

Source: the Human Domainome abundance scans (Beltran et al. 2025)
